One block for each binder: values may come before it.
How the values were obtained:
SNF = target: T1, SNF (Drosophila melanogaster, UniProt P43332)
T1 chain: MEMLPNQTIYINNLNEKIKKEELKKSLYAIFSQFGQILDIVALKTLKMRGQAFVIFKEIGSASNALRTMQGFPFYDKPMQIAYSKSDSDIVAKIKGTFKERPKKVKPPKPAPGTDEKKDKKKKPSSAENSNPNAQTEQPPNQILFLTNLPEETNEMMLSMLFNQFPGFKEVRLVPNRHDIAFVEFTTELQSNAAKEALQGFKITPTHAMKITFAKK

SNF (sans fille) = target: T2, SNF (sans fille) (Drosophila, UniProt P43332 1-216); assay: 2-aminopurine fluorescence and CD
T2 sequence: T1 chain

Kd (SNF): 4 nM
B1: U2A' (protein)
chain: MVKLTPELINQSMQYINPCRERELDLRGYKIPQIENLGATLDQFDTIDLSDNDLRKLDNLPHLPRLKCLLLNNNRILRISEGLEEAVPNLGSIILTGNNLQELSDLEPLVGFTKLETICLLINPVSTKPNYREYMAYKFPQLRLLDFRKIKQKDRQAAQEFFRTKQGKDVLKEISRKSKMSAAAAIAAEAGNGKGRGSEGGRLANPQDMQRIREAIKRASSLAEVERLSQILQSGQLPDKFQHEMEAVAQNGAGHNGSGAVAMEY
modifications: SLIV RNA bound

Binder: GGCCGUAUUGCAGUACCGCGGCC (structured_RNA, 2-aminopurine replaces A at position 15 (3'-loop adenine)) [2AP-SLIV]
binding result (SNF (sans fille)): binds

Reference: publication PMC4059526 (2014)
